The subject of the data set is MS2 coat protein. Kind of data set: apparent KD of MS2 coat protein; higher = weaker reporter binding. The settings on record: Eterna round: R107. The gist of the method:
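Normalised binding curves from single clusters were fitted, and the median fit for each design is given as apparent KD. The clusters held designed RNA switches transcribed on-chip from Illumina sequencing clusters. These were titrated with SNAP-549-labelled MS2 coat protein (twofold steps from 0.7 or 1.5 nM to 3 µM, 0.8–1.5 h to 10–20 min per step) in 100 mM Tris-HCl pH 7.5, 80 mM KCl, 4 mM MgCl2, without or with constant ligand.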

Setting [1] is: input ligand: theophylline 20 uM.
Setting [2] is: input ligand: tryptophan 2.4 mM.
Setting [3] is: input ligand: theophylline 2 mM.

Turning to “AGAAUACAUGUUUUAAUACGGAAAACUGAUACCAGUGUAUCUAUUCACCCUUGGCAGCAGAGACAUGAGGAUCACCCAUGUAUUA [JR_Nu_SSTheophyA_Sub019]”, the “apparent KD of MS2 coat protein” value reads like this: (input ligand: arginine 13.2 mM) 28.1 nM; under setting [1], 41.2 nM; under setting [2], 46.6 nM.

Consider “AGACAUGAGGAUCACCCAUGUAGUACGGAUACCAGAUCCAGAUGUAUCCCUUGGCAGCUGUGGUACAGCGUUGCAACGCUCCUAG [Exclusion - Theophylline A (Freestyle 18)]”, for which the “apparent KD of MS2 coat protein” value runs as follows: (input ligand: arginine 13.2 mM) 15 nM; under setting [1], 23.9 nM; under setting [2], 15.2 nM.

“AGACAUGAGGAUCACCCAUGUAGUACGGAUACCAGAUCCAGAUGUAUCCCUUGGCAGCUGUGGUACAGCGUUGCAUCGCUCCUAG [Exclusion - Theophylline A (Freestyle 19)]”: the “apparent KD of MS2 coat protein” value was determined as 13.1 nM (input ligand: arginine 13.2 mM); 16.6 nM (input ligand: none); 20.6 nM under setting [1]; 20.1 nM under setting [3]; 14.4 nM under setting [2].

For “AGACAUGAGGAUCACCCAUGUAGUAUGGAUACCAGAUCCAGAUUUAUCCCUUGGCAGCUGUGGUACAGCGUUGGAUCGCUCCUAG [Exclusion - Theophylline A (Freestyle 12)]”, the “apparent KD of MS2 coat protein” value runs as follows: (input ligand: arginine 13.2 mM) 22.3 nM; under setting [1], 34.6 nM; under setting [2], 27.8 nM.

Consider “AGACAUGAGGAUCACCCAUGUAGUAUGGAUACCAGAUCCAGAUUUAUCCCUUGGCAGCUGUGGUACAGUGAUGGAUUGCUCCUAG [Exclusion - Theophylline A (Freestyle 9)]”, for which the “apparent KD of MS2 coat protein” value is, setting by setting: (input ligand: arginine 13.2 mM) 30.4 nM; under setting [1], 52 nM; under setting [2], 32.7 nM.

“AGACAUGAGGAUCACCCAUGUAGUAUGGAUACCAGAUGUAGAUUAGUCCCUUGGCAGCUGUGCUGAAGUGAUGCAUUGCUCCUAG [#15 Exclusion-TheophyllineA]”: the “apparent KD of MS2 coat protein” value by setting is: (input ligand: arginine 13.2 mM) 21.9 nM; (input ligand: none) 22.1 nM; under setting [1], 33.5 nM; under setting [3], 24.2 nM; under setting [2], 23.6 nM.

For “AGAUGAGUCACGGCCGCCACUCACUACAGGUUCACCCUUGGUUAACAUGAGGAUCACCCAUGUGGGAGGACCGGGUGAUGAGCAU [XTryp B #4]”, the “apparent KD of MS2 coat protein” value amounted to 18.5 nM (input ligand: arginine 13.2 mM), 32.7 nM under setting [1] and 25.6 nM under setting [3].

On to “AGAUGAGUCACGGCCGCCACUCUUAUCAGGAUCACCCAUGGUUAACAUGAGGAUCACCCAUGUCUGAGGACCGGGUGAUGAGCAU [XTryp B #2]”, for which the “apparent KD of MS2 coat protein” value is, setting by setting: (input ligand: arginine 13.2 mM) 18.3 nM; under setting [1], 31.4 nM; under setting [3], 25.3 nM.

In the case of “AGAUGAGUCACGGCCGCCACUCUUCACAGGUUCACCCUUGGUUAACAUGAGGAUCACCCAUGUGGGAGGACCGGGUGAUGAGCAU [XTryp B #5]”, the “apparent KD of MS2 coat protein” value by setting is: (input ligand: arginine 13.2 mM) 14.2 nM; under setting [1], 17.3 nM; under setting [3], 15.6 nM.

With “AGAUGUAGCGGAAGGAGCGACUUGAGGAUCACCCAAGUCUCCCGUUGUGGGAGUUCCUUAGGUCAGGUAGGUCGCCGUUACGUCA [Omei Arg B SS B v3]”, the “apparent KD of MS2 coat protein” value (input ligand: arginine 13.2 mM) stood at 31.6 nM; the “apparent KD of MS2 coat protein” value (input ligand: none) was 145 nM; the “apparent KD of MS2 coat protein” value under setting [1] was 154 nM; the “apparent KD of MS2 coat protein” value under setting [3] stood at 310 nM; the “apparent KD of MS2 coat protein” value under setting [2] amounted to 82.8 nM.

With “AGAUUACAUGUUUUAAUAAGAUAAACUGAUACCAGUGUAUAUAUUCACCCUUGGCAGCAGCAACAUGAGGAUCACCCAUGUAUUA [JR_SSTheophyA_Sub015]”, the “apparent KD of MS2 coat protein” value runs as follows: (input ligand: arginine 13.2 mM) 14.4 nM; under setting [1], 18.7 nM; under setting [2], 16.7 nM.

Regarding “AGAUUCGACACGGCCGCCACUCGUGGAGGAUUACCGAGUGUCGAACAUGAGGAUCACCCAUGUACGAGGACCGGGUGUUGAGUCU [XTryp B #15]”, the “apparent KD of MS2 coat protein” value runs as follows: (input ligand: arginine 13.2 mM) 23.5 nM; (input ligand: none) 27.3 nM; under setting [1], 32.2 nM; under setting [3], 28.5 nM; under setting [2], 179 nM.

On to “AGAUUCGACACGGCCGCCACUUGUGGUGGAUUAUCCUGUGUCGAACAUGAGGAUCACCCAUGUACAAGGACCGGGUGUUGAGUCU [XTryp B #20]”, for which the “apparent KD of MS2 coat protein” value reads like this: (input ligand: arginine 13.2 mM) 60.2 nM; under setting [1], 151 nM; under setting [3], 136 nM.

For the sequence “AGCAAGUUCGGAAGGAGCGGUACAUGAGGAUCACCCAUGUAUUCAAUCGUGAUCGGAACGUGCCAGGUAGGUCGCCGAAUGCGUC [XArg-B1]”, the “apparent KD of MS2 coat protein” value stood at 13.3 nM (input ligand: arginine 13.2 mM); 13.1 nM (input ligand: none); 23.1 nM under setting [1]; 15.9 nM under setting [3]; 15 nM under setting [2].

Regarding “AGCACGGUGAUGGUAGCCGGACGCUAGGUACGAGGACCGGUACGGCCGCCACUCGAAGUCCUACGACAUGAGGAUCACCCAUGUA [Same State Trp A GF13]”, the “apparent KD of MS2 coat protein” value stood at 37.9 nM (input ligand: arginine 13.2 mM), 59.2 nM under setting [1] and 75.2 nM under setting [3].

As to “AGCAGCUCGAAAGAGUUGCACUCAUGUGAAGGAGCGCGCGUUAGCGCAGGUAGGUCGCACAUGAGGAUCACCCAUGUACCUUCUA [MAT - Exclusion Arginine A - Mod of Eli - D15]”, the “apparent KD of MS2 coat protein” value (input ligand: arginine 13.2 mM) was 87.3 nM; the “apparent KD of MS2 coat protein” value (input ligand: none) worked out at 173 nM; the “apparent KD of MS2 coat protein” value under setting [1] amounted to 211 nM; the “apparent KD of MS2 coat protein” value under setting [3] stood at 268 nM; the “apparent KD of MS2 coat protein” value under setting [2] is 108 nM.

The record behind these values is the supplement of paper PMC9170038.
